Results: patent US20240034786A1 (WUXI BIOLOGICS IRELAND, published 2024)
Where a chain is given by its changes, count along the chain named. Names may count otherwise.

B1: W3195-1.53.1-p7-uIgG1LV320 (antibody, V domains shown)
VH: QVQLQESGPGLVKPSETLSLTCTVSGGSVISDNYYWTWVRQPPGKGLEFIGYIYYRGSTNYNPSLKNRVIISIDTSRNQFSLDLNSVTAADTAVYYCARDRRTGSSLPFDNWGQGTLVTVSS
VL: SYELTQPPSVSVSPGQTAQITCSGDKLGDKFASWYQQKSGQSPVVVIYQDNKRPSGFPERFSGSNSGNTATLTISGTQAMDEADYYCQAWDSSIVVFGGGTKLTVLG
notes: also called W3195-1.53.1-p7-uIgG1V320; W3195-p7-V320 antibody
B2: W3195-1.53.1-p6-uIgG1LV320 (antibody, V domains shown)
VH: B1 VH with S105T
VL: B1 VL
notes: also called W3195-1.53.1-p6-uIgG1V320; W3195-p6-V320 antibody
B3: W3195-1.53.1-p4-uIgG1LV320 (antibody, V domains shown)
VH: B1 VH with S105N, S106A
VL: B1 VL
notes: V320 = IgG1 Fc with L234A/L235A; also called W3195-1.53.1-p4-uIgG1V320; W3195-p4-V320 antibody
B4: W3195-1.53.1-p5-uIgG1LV320 (antibody, V domains shown)
VH: B1 VH with S105Q
VL: B1 VL
notes: also called W3195-1.53.1-p5-uIgG1V320; W3195-p5-V320 antibody
B5: W3195-1.53.1-uIgG1L (antibody)
heavy: not shown
light: SYELTQPPSVSVSPGQTANITCSGDKLGDKFASWYQQKSGQSPVVVIYQDNKRPSGFPERFSGSNSGNTATLTISGTQAMDEADYYCQAWDSSIVVFGGGTKLTVLGQPKAAPSVTLFPPSSEELQANKATLVCLISDFYPGAVTVAWKADSSPVKAGVETTTPSKQSNNKYAASSYLSLTPEQWKSHRSYSCQVTHEGSTVEKTVAPTECS
notes: Fully human IgG1 from an OmniRat hybridoma, converted to human IgG1; also called parental antibody; parental mAb
B6: W3195-1.53.1-p3-uIgG1L (antibody)
heavy: not shown
light: B5 light with T21A
notes: also called W3195-p3 antibody

The binders below were run against T1, Human P-cadherin on cells (human, UniProt P22223 108-829) (assay: FACS on DU-145 cells).
T1 construct: whole, on cells; Endogenous P-cadherin on tumour cell lines; also called hPro1
T1 sequence (P22223 108-829): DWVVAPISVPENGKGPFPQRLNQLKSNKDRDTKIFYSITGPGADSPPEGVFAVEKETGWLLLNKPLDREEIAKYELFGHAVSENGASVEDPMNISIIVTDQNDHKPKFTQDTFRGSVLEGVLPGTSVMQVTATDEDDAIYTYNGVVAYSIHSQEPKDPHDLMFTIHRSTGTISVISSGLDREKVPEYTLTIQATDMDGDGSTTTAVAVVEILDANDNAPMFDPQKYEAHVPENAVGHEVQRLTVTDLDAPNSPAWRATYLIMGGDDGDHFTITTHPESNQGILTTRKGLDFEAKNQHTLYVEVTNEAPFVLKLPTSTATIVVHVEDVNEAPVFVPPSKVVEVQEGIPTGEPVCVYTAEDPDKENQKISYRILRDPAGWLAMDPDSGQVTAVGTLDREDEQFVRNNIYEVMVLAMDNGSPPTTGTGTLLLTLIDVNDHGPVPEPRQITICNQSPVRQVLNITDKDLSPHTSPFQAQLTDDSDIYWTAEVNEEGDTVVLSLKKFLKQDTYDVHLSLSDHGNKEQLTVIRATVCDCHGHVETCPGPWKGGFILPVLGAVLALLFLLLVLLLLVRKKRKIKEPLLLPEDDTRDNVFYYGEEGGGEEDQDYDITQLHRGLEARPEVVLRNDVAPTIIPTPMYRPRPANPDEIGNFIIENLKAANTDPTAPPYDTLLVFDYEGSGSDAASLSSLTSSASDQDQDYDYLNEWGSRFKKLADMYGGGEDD
Protocol: (§1) Binding of the test antibodies to P-cadherin expressed on cells was determined by flow cytometry analysis. […] 1×10⁵ cells/well (100 μL) were added to each well of a 96-well U-plate (Corning, #3799) and centrifuged at 1500 rpm (Eppendorf, #5810R) for 5 minutes before removing the supernatant. Antibodies serially diluted in 1% BSA/1×PBS (Ca+/Mg+) were added at 100 μL/well to the pelleted cells and incubated at 4° C. for 1 hour. Anon-related hIgG1 antibody was used as an isotype control. Cells were washed two times with 180 μL/well of 1% BSA/1×PBS (Ca+/Mg+) by centrifugation at 1500 rpm for 5 minutes at 4° C. Pelleted cells were resuspended in 100 μL/well Alexa647 conjugated Goat anti-human IgG Fc (Jackson, #109-605-098) 1:500 diluted in 1% BSA/1×PBS (Ca+/Mg+) for 30 minutes at 4° C. in the dark. Cells were then washed two times as described above. After the final wash, cells were resuspended in 100 μL 1% BSA/1×PBS (Ca+/Mg+) and fluorescence values were measured with a FACS Canto II cytometer (BD Biosciences). The amount of cell surface bound anti-P-cadherin antibody was assessed by measuring the mean fluorescence (MFI). The FACS raw data were analyzed by FlowJo software, wells containing no antibody or secondary antibody only were used to establish background fluorescence. Binding EC50 values were obtained by the four-parameter non-linear regression analysis using GraphPad Prism6 software.

B1 and B2 are within 1.5-fold of each other in EC50: 90 pM for the first, 100 pM for the second.

B3 and B4 are the same in EC50: 120 pM for the first, 120 pM for the second.

First: B1
Second: B2
The “Max MFI” value of the first is lower: 2280 for the first, 2290 for the second.

Going from B3 to B4, the “Max MFI” value rises from 2160 to 2240.

These binders were tested against T1, Human P-cadherin on cells (assay: cell-based or functional assay).

B1 and B2 are within 1.5-fold of each other in “internalization, Fab-ZAP on HCC-1954, IC50” value: 59 pM for the first, 63 pM for the second.

B3 and B4 are within 1.5-fold of each other in “internalization, Fab-ZAP on HCC-1954, IC50” value: 63 pM for the first, 58 pM for the second.

B1 and B2 are the same in “internalization, Fab-ZAP on HCC-1954, Max Inh %” value: 79% for the first, 79% for the second.

First: B3
Second: B4
The “internalization, Fab-ZAP on HCC-1954, Max Inh %” value of the first is lower: 80% for the first, 82% for the second.

Target: T1, Human P-cadherin on cells
Assay: FACS on DU-145 cells
Remark: another data set of the same source
Protocol: as §1

B5 and B6 are the same in EC50: 50 pM for the first, 50 pM for the second.

Going from B5 to B6, the “Max MFI” value rises from 2090 to 2140.

These binders were tested against T1, Human P-cadherin on cells (assay: FACS on HCT-116 cells).
Protocol: as §1
Binding of the antibodies to human P-cadherin expressed on cells was determined by flow cytometry analysis.

B1 and B2 are the same in EC50: 140 pM for the first, 140 pM for the second.

B3 and B4 are within 1.5-fold of each other in EC50: 140 pM for the first, 170 pM for the second.

Going from B1 to B2, the “Max MFI” value falls from 4230 to 4180.

Going from B3 to B4, the “Max MFI” value falls from 4190 to 4170.

Target: T1, Human P-cadherin on cells
Assay: cell-based or functional assay
Remark: another data set of the same source

For B6, the “internalization, Fab-ZAP CTG assay on HCC-1954, IC50” value was 20 pM.
